From publication PMC5794975, “Mapping the interaction site and effect of the Siglec-9 inflammatory biomarker on human primary amine oxidase” (Scientific Reports, 2018)
Bridges are numbered along the chain shown (N, C = ends). Where no end group is shown, it is not given here.

T1: Human primary amine oxidase (hAOC3), recombinant (human, UniProt Q16853 1-763, topaquinone (TPQ; 2,4,5-trihydroxyphenylalanine quinone, a post-translationally modified tyrosine); N-glycans at Asn137, Asn232, Asn294, Asn592, Asn618, Asn666)
T1 sequence (looked up): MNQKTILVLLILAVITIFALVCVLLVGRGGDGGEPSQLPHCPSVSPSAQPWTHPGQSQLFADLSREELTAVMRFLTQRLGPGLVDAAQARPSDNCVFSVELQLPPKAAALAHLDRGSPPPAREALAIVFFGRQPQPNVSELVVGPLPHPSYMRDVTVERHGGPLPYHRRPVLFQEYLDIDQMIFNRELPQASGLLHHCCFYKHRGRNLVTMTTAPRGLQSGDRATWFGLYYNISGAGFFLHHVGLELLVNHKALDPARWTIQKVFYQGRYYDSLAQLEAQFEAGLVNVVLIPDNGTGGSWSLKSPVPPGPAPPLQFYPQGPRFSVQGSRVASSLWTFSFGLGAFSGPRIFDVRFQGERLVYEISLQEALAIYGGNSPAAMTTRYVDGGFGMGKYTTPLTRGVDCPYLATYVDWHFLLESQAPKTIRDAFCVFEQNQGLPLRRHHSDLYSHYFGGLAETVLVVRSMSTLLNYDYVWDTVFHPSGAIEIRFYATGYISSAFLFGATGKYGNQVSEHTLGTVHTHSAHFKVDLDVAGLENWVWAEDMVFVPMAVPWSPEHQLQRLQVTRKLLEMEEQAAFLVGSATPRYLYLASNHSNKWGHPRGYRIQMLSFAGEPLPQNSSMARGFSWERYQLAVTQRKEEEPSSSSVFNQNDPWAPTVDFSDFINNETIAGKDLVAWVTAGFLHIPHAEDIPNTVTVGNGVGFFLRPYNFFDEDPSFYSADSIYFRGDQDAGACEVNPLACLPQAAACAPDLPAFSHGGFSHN


Target: T1, Human primary amine oxidase (hAOC3), …
Assay: cell-based or functional assay

Binder	activity of hAOC3-expressing CHO cells towards [7-14C]benzylamine with 5 µM peptide, percent of the control without peptide [%]
CARLSLSWRGLTLCPSK (disulfide 1-14) [cyclic Siglec-9 peptide (CARLSLSWRGLTLCPSK)]	127
CAALSLSWRGLTLCPSK (disulfide 1-14) [R3A Siglec-9 peptide (CAALSLSWRGLTLCPSK)]	139
CARLSLSWAGLTLCPSK (disulfide 1-14) [R9A Siglec-9 peptide (CARLSLSWAGLTLCPSK)]	126
CAALSLSWAGLTLCPSK (disulfide 1-14) [R3A/R9A Siglec-9 peptide (CAALSLSWAGLTLCPSK)]	158
